Measurements from the Immune Epitope Database (IEDB).

Experiments:
[1] = biological target: HLA-B*58:01; assay: IEDB peptide-MHC binding, purified MHC/direct/fluorescence; filed as Kd, often an IC50 or EC50 that approximates it; ≥ and ≤ were set here for values at or beyond the usual limits of such assays
[2] = biological target: HLA-B*15:17; assay: as above
[3] = biological target: HLA-B*57:01; assay: as above
[4] = biological target: HLA-A*31:01; assay: IEDB peptide-MHC binding, purified MHC/competitive/radioactivity; filed as Kd, often an IC50 or EC50 that approximates it; ≥ and ≤ were set here for values at or beyond the usual limits of such assays
[5] = biological target: HLA-B*07:02; assay: as above
[6] = biological target: HLA-A*11:01; assay: as above
[7] = biological target: HLA-A*03:01; assay: as above
[8] = biological target: HLA-B*53:01; assay: as above
[9] = biological target: HLA-A*68:01; assay: as above
[10] = biological target: HLA-A*33:01; assay: as above
[11] = biological target: HLA-B*51:01; assay: as above
[12] = biological target: HLA-B*54:01; assay: as above
[13] = biological target: HLA-B*35:01; assay: as above
[14] = biological target: HLA-B*15:03; assay: as above
[15] = biological target: HLA-A*32:01; assay: as above
[16] = biological target: HLA-B*15:01; assay: as above
[17] = biological target: HLA-A*24:03; assay: IEDB peptide-MHC binding, purified MHC/direct/fluorescence; filed as Kd, often an IC50 or EC50 that approximates it; ≥ and ≤ were set here for values at or beyond the usual limits of such assays
[18] = biological target: HLA-A*02:01; assay: as above
[19] = biological target: HLA-B*08:01; assay: as above
[20] = biological target: HLA-A*01:01; assay: as above
[21] = biological target: HLA-B*07:02; assay: as above
[22] = biological target: HLA-B*15:01; assay: as above
[23] = biological target: HLA-A*11:01; assay: as above
[24] = biological target: HLA-A*69:01; assay: as above
[25] = biological target: HLA-B*40:01; assay: as above
[26] = biological target: HLA-A*03:01; assay: as above
[27] = biological target: HLA-B*27:05; assay: as above
[28] = biological target: HLA-A*26:01; assay: as above
[29] = biological target: HLA-A*30:01; assay: IEDB peptide-MHC binding, purified MHC/competitive/radioactivity; filed as Kd, often an IC50 or EC50 that approximates it; ≥ and ≤ were set here for values at or beyond the usual limits of such assays; conditions: source organism: Vaccinia virus WR
[30] = biological target: HLA-B*44:02; assay: IEDB peptide-MHC binding, purified MHC/direct/fluorescence; filed as Kd, often an IC50 or EC50 that approximates it; ≥ and ≤ were set here for values at or beyond the usual limits of such assays; conditions: source organism: Vibrio cholerae
[31] = biological target: HLA-A*29:02; assay: IEDB peptide-MHC binding, purified MHC/competitive/radioactivity; filed as Kd, often an IC50 or EC50 that approximates it; ≥ and ≤ were set here for values at or beyond the usual limits of such assays; conditions: source organism: Mammarenavirus juninense
[32] = biological target: HLA-A*24:02; assay: as above; conditions: source organism: Mammarenavirus juninense
[33] = biological target: HLA-A*23:01; assay: as above; conditions: source organism: Mammarenavirus juninense
[34] = biological target: HLA-B*08:01; assay: as above; conditions: source organism: Vaccinia virus WR
[35] = biological target: HLA-A*02:01; assay: IEDB peptide-MHC binding, purified MHC/competitive/fluorescence; filed as Kd, often an IC50 or EC50 that approximates it; ≥ and ≤ were set here for values at or beyond the usual limits of such assays; conditions: source organism: Vaccinia virus Copenhagen
[36] = source organism: Brucella melitensis
[37] = source organism: Vaccinia virus WR
[38] = source organism: Vaccinia virus Copenhagen
[39] = source organism: Haemophilus influenzae
[40] = source organism: Vibrio cholerae
[41] = source organism: Lake Victoria marburgvirus - Popp
[42] = source organism: Marburg virus - Musoke, Kenya, 1980
[43] = source organism: Mammarenavirus lassaense

RAYSVPETF
Kd [1, 36]: 0.0145 µM | Kd [2, 36]: ≤ 0.001 µM | Kd [3, 36]: 0.0418 µM

ILMIFISSFL
Kd [4, 37]: 0.625 µM | Kd [5, 37]: 16.8 µM | Kd [6, 37]: 1.78 µM | Kd [7, 37]: 0.397 µM | Kd [8, 37]: 1.25 µM | Kd [9, 37]: 0.989 µM | Kd [10, 37]: 0.966 µM | Kd [11, 37]: 4.91 µM | Kd [12, 37]: 1.5 µM | Kd [13, 37]: 3.05 µM

MTVVSAVHF
Kd [14, 37]: 0.278 µM | Kd [15, 37]: 1.94 µM

LQNSVVLQF
Kd [14, 38]: 0.00622 µM | Kd [16, 38]: 0.00151 µM | Kd [15, 38]: 0.00733 µM

FAAMIIRSF
Kd [14, 37]: 0.00133 µM

VYFSPWFFL
Kd [1, 39]: ≥ 20 µM | Kd [17, 39]: 0.0197 µM | Kd [18, 39]: ≥ 20 µM | Kd [19, 39]: ≥ 20 µM | Kd [20, 39]: ≥ 20 µM | Kd [21, 39]: ≥ 20 µM | Kd [22, 39]: ≥ 20 µM | Kd [23, 39]: ≥ 20 µM | Kd [24, 39]: ≥ 20 µM | Kd [25, 39]: ≥ 20 µM | Kd [26, 39]: ≥ 20 µM | Kd [27, 39]: ≥ 20 µM | Kd [28, 39]: ≥ 20 µM

KAGVRGWFL
Kd [1, 36]: 0.225 µM | Kd [2, 36]: 2.28 µM | Kd [3, 36]: 0.0715 µM

KTKETNRIY
Kd [14, 37]: 0.172 µM | Kd [29]: 0.0107 µM

AYLLQHLDL
Kd [1, 40]: ≥ 20 µM | Kd [17, 40]: 0.00153 µM | Kd [18, 40]: ≥ 20 µM | Kd [19, 40]: ≥ 20 µM | Kd [20, 40]: ≥ 20 µM | Kd [21, 40]: ≥ 20 µM | Kd [22, 40]: ≥ 20 µM | Kd [23, 40]: ≥ 20 µM | Kd [24, 40]: ≥ 20 µM | Kd [25, 40]: ≥ 20 µM | Kd [26, 40]: ≥ 20 µM | Kd [30]: ≥ 20 µM | Kd [27, 40]: ≥ 20 µM | Kd [28, 40]: ≥ 20 µM

LYTVKYPNL
Kd ([17]; source organism: Mammarenavirus machupoense): 0.0301 µM | Kd [31]: ≥ 23.5 µM | Kd [32]: 2.43 µM | Kd [33]: 0.23 µM

FQRKPFNNI
Kd [14, 37]: 0.0089 µM

SATYATVPF
Kd [14, 38]: 0.012 µM

NLYSFTIVF
Kd [14, 38]: 0.0312 µM

KSPDVHEDF
Kd [1, 41]: 0.921 µM | Kd [2, 41]: ≥ 20 µM | Kd [3, 41]: 0.566 µM

SSNAKNSEW
Kd [1, 42]: 0.0699 µM | Kd [2, 42]: 0.0027 µM | Kd [3, 42]: 0.135 µM

VLFLQQSIF
Kd [14, 37]: 0.00061 µM

LSVPAAIMM
Kd [14, 37]: 0.0685 µM

FYSSFVQTF
Kd [14, 37]: 0.0388 µM

KWKYENPCK
Kd [14, 37]: 0.296 µM | Kd [29]: 0.015 µM | Kd [34]: ≥ 50.9 µM | Kd [16, 37]: ≥ 78.1 µM | Kd [15, 37]: ≥ 59 µM

FQTVNFNNA
Kd [14, 37]: 0.305 µM | Kd [29]: 0.115 µM | Kd [34]: 16 µM | Kd [16, 37]: 8.18 µM | Kd [15, 37]: ≥ 50.9 µM

KSSLNISGY
Kd [1, 43]: 0.0377 µM | Kd [2, 43]: 0.0016 µM | Kd [3, 43]: 0.575 µM

ILMIFISSF
Kd [14, 37]: 0.0119 µM | Kd [15, 37]: 0.0867 µM

DPTFQLLNMI
Kd [5, 37]: ≥ 69.6 µM | Kd [8, 37]: 12.6 µM | Kd [11, 37]: 4.99 µM | Kd [12, 37]: ≥ 27.1 µM | Kd [13, 37]: ≥ 69.9 µM

LPSLIKTILA
Kd [5, 37]: 1.52 µM | Kd [8, 37]: 1.96 µM | Kd [11, 37]: 11 µM | Kd [12, 37]: 0.00154 µM | Kd [13, 37]: 2.23 µM

CPFLFLIVL
Kd [5, 43]: ≥ 77.4 µM | Kd [8, 43]: 14.1 µM | Kd [11, 43]: ≥ 54.7 µM | Kd [12, 43]: 1.52 µM | Kd [13, 43]: 0.414 µM

IQHNFTQIA
Kd [14, 37]: 0.000251 µM

LPVYFGSVF
Kd [14, 37]: 0.123 µM

VPDIKLDAVL
Kd [5, 37]: 0.00494 µM | Kd [8, 37]: 0.134 µM | Kd [11, 37]: 0.335 µM | Kd [12, 37]: 1.62 µM | Kd [13, 37]: 0.14 µM

FLIVSLCPT
Kd [35]: 0.0003 µM | Kd [4, 38]: 3.23 µM | Kd [5, 38]: 12 µM | Kd [6, 38]: ≥ 48.1 µM | Kd [7, 38]: 2.59 µM | Kd [8, 38]: 6.21 µM | Kd [9, 38]: 5.31 µM | Kd [10, 38]: 6.55 µM | Kd [11, 38]: ≥ 28.6 µM | Kd [12, 38]: 0.359 µM | Kd [13, 38]: 16 µM

DPRLVAEHRF
Kd [5, 37]: ≥ 21.4 µM | Kd [8, 37]: 1.21 µM | Kd [11, 37]: ≥ 69.6 µM | Kd [12, 37]: ≥ 69.9 µM | Kd [13, 37]: 11.7 µM
